B1: Rat p75 neurotrophin receptor (p75^NTR), wild type, N-terminal HA tag (receptor, UniProt P07174 30-425, looked up)
chain: KETCSTGLYTHSGECCKACNLGEGVAQPCGANQTVCEPCLDNVTFSDVVSATEPCKPCTECLGLQSMSAPCVEADDAVCRCAYGYYQDEETGHCEACSVCEVGSGLVFSCQDKQNTVCEECPEGTYSDEANHVDPCLPCTVCEDTERQLRECTPWADAECEEIPGRWIPRSTPPEGSDSTAPSTQEPEVPPEQDLVPSTVADMVTTVMGSSQPVVTRGTTDNLIPVYCSILAAVVVGLVAYIAFKRWNSCKQNKQGANSRPVNQTPPPEGEKLHSDSGISVDSQSLHDQQTHTQTASGQALKGDGNLYSSLPLTKREEVEKLLNGDTWRHLAGELGYQPEHIDSFTHEACPVRALLASWGAQDSATLDALLAALRRIQRADIVESLCSESTATSPV
B2: Endogenous rat p75^NTR (receptor, UniProt P07174 30-425, looked up)
chain: B1 chain

Target: the molecule itself
Assay: non-reducing SDS-PAGE of immunoprecipitates

Protein	stoichiometry N
B1	2
B2	2
